Assay results taken from US20020037516.
Like-named read-outs stand apart in the source and are kept apart here.

Key:
[1] = target: TSR thiostrepton resistance methyltransferase (tsr) (Streptomyces azureus) (UniProt P18644); settings: Km of methylation; 5 mM MgCl2, 25 mM NH4Cl, pH 7.5, 25 C
Ribosomal protein L11 = experiment: inhibition; settings: affinity from inhibition of TSR methylation; 5 mM MgCl2, 25 mM NH4Cl, pH 7.5, 25 C
[2] = test system: ErmE erythromycin resistance methyltransferase; settings: Km of methylation; 10 mM MgCl2, 100 mM NH4Cl, pH 7.8, 30 min 25 C
[3] = target: TSR thiostrepton resistance methyltransferase (tsr) (Streptomyces azureus) (UniProt P18644); settings: Km +/-3 nM, 15 experiments; 5 mM MgCl2, 25 C

## E. coli mGAR 60-mer
[1]
  activity: 50 nM
Ribosomal protein L11
  Ki: 84 nM

## 23S rRNA (Erm substrate)
[2]
  activity: 23 nM

## GAR 58-mer RNA
[3]
  activity: 47 nM
